According to the supplement of paper PMC11908140:

B1: library; numbered along this chain (parent)
chain: MRKPRAAVGSGHRKQAASQEGRQKHAKNNSQAKPSACDGLARQPEEVVLQASVSSYHLFRDVAEVTAFRGSLLSWYDQEKRDLPWRRRAEDEMDLDRRAYAVWVSEVMLQQTQVATVINYYTGWMQKWPTLQDLASASLEEVNQLWAGLGYYSRGRRLQEGARKVVEELGGHMPRTAETLQQLLPGVGRYTAGAIASIAFGQATGVVDGNVARVLCRVRAIGADPSSTLVSQQLWGLAQQLVDPARPGDFNQAAMELGATVCTPQRPLCSQCPVESLCRARQRVEQEQLLASGSLSGSPDVEECAPNTGQCHLCLPPSEPWDQTLGVVNFPRKASRKPPREESSATCVLEQPGALGAQILLVQRPNSGLLAGLWEFPSVTWEPSEQLQRKALLQELQRWAGPLPATHLRHLGEVVHTFSHIKLTYQVYGLALEGQTPVTTVPPGARWLTQEEFHTAAVSTAMKKVFRVYQGQQPGTCMGSKRSQVSSPCSRKKPRMGQQVLDNFFRSHISTDAHSLNSAAQ

Variants of: B1
Experiment: 8OG:A repair function score (normalized; synonymous = 0, nonsense = -1) (normalized log-likelihood score); higher = more repair activity (WT-like)
Details: with 8OG:A DNA repair reporter (GFP) in HEK-293 MUTYH KO cells
Method: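 Saturation mutagenesis (NNN codon scan) of the MUTYH cDNA (521-aa nuclear isoform NM_001048174.1 / NP_001041639), stably expressed under doxycycline induction in HEK-293 MUTYH knockout cells. Cells were co-transfected with an 8OG:A-bearing GFP repair reporter plus mCherry and sorted 72 h later into GFP+ and GFP− bins, three replicates per tile. The Rosace log2 enrichment (GFP+ vs GFP−) was converted per tile to a normalized function score with synonymous variants centered at 0 and nonsense variants (codons 1-471) at -1; low-abundance variants were removed.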

Variant | 8OG:A repair function score
A115G | -0.0228
A115F | -0.146
A115W | -0.182
A115K | -0.0104
A115D | -0.0868
A115C | -0.0964
A115M | -0.164
A115N | 0.178
A115P | -0.0424
A115R | 0.092
A115S | -0.0518
A115T | -0.106
A115V | 0.00984
A115Y | -0.206
A115E | 0.0471
A115Q | -0.0206
A115I | -0.0495
A115L | -0.0647
A115H | 0.0405
Y100V | -1.41
Y100P | -2.33
Y100L | -1.29
Y100N | -1.17
Y100I | -1.67

Variant | 8OG:A repair function score
Y100E | -1.42
Y100A | -1.95
Y100D | -1.79
Y100M | -1.24
Y100K | -1.96
Y100Q | -1.23
Y100H | -1.01
Y100G | -1.64
Y100C | -1.66
Y100T | -1.56
Y100R | -1.63
Y100F | -0.679
Y100S | -1.56
M108D | -0.793
M108L | -0.662
M108K | -1.01
M108Q | -0.453
M108N | -1.18
M108A | -1.06
M108I | -0.761
M108F | -0.641
M108Y | -0.819
M108P | -1.2
M108H | -1.36

Variant | 8OG:A repair function score
M108G | -1.18
M108V | -1.11
M108W | -1.11
M108E | -0.887
M108C | -0.99
M108S | -1.28
M108T | -0.981
M108R | -1.2
V104H | -1.31
V104K | -0.731
V104G | -0.976
V104P | -1.01
V104S | -0.759
V104C | -0.133
V104I | -0.19
V104E | -0.936
V104R | -1.11
V104L | -0.583
V104M | -0.192
V104F | -1.1
V104T | -0.472
V104W | -0.707
V104D | -1.33
V104N | -1.04

Variant | 8OG:A repair function score
V104A | -0.365
V104Q | -1.17
V104Y | -1.27
V102L | -0.259
V102R | -1.41
V102Q | -0.275
V102K | -1.71
V102N | -1.28
V102M | -0.352
V102C | -0.092
V102P | -1.21
V102W | -1.13
V102Y | -1.01
V102E | -1.11
V102G | -1.36
V102F | -0.714
V102T | -0.0943
V102H | -2.8
V102I | -0.00401
V102D | -0.89
V102S | -0.376
V102A | -0.644
V107W | -0.894
V107K | -0.731

Variant | 8OG:A repair function score
V107I | 0.0887
V107H | -0.608
V107A | 0.0286
V107Q | -0.746
V107D | -1.44
V107F | -0.314
V107N | -0.735
V107Y | -0.533
V107R | -0.87
V107C | -0.0803
V107P | -1.01
V107E | -0.669
V107T | -0.0133
V107G | -0.0408
V107L | -0.266
V107M | 0.0622
V107S | -0.135
L109D | -1.16
L109S | -0.213
L109K | -0.951
L109E | -1.07
L109T | -0.266
L109F | -0.916
L109P | -1

Variant | 8OG:A repair function score
L109W | -0.957
L109V | -0.838
L109Y | -1.24
L109I | -1.04
L109C | -0.0119
L109A | 0.00548
L109G | -0.659
L109R | -1.05
L109N | -0.45
L109Q | -0.022
L109H | -0.619
L109M | -0.105
T112F | -1.17
T112D | -1.3
T112C | -0.907
T112M | -1.06
T112H | -0.634
T112V | -0.914
T112L | -1.42
T112P | -1.38
T112Y | -1.19
T112K | -1.01
T112A | -1.03
T112E | -0.925

Variant | 8OG:A repair function score
T112R | -0.922
T112W | -1.35
T112G | -0.908
T112Q | -0.591
T112I | -1.18
T112S | -0.314
T112N | -0.879
A99Q | -2.46
A99V | -0.708
A99T | -0.459
A99Y | -0.837
A99P | -0.584
A99S | -0.124
A99R | -1.8
A99W | -1.08
V114M | -1.07
V114H | -0.935
V114G | -0.449
V114P | -1.09
V114F | -0.42
V114I | -0.181
V114E | -0.932
V114L | -0.441
V114N | -0.367

Variant | 8OG:A repair function score
V114A | 0.0344
V114C | -0.178
V114D | -0.453
V114T | -0.141
V114W | -0.527
V114S | -0.184
V114K | -0.435
V114Q | -0.313
V114R | -0.297
V114Y | -0.241
S105F | -1.43
S105Q | -0.69
S105P | -0.822
S105Y | -1.24
S105M | -0.981
S105E | -0.676
S105R | -0.765
S105V | -0.566
S105G | -0.13
S105I | -0.549
S105K | -1.25
S105D | -0.841
S105N | -0.802
S105W | -0.677

Variant | 8OG:A repair function score
S105A | -0.0215
S105T | -0.804
S105H | -0.786
S105L | -0.798
S105C | -0.577
A101Q | -1.09
A101W | -0.762
A101S | 0.00626
A101E | -0.00955
A101G | -0.024
A101C | -0.00146
A101T | -0.047
A101D | -0.0136
A101Y | -0.0479
A101H | -0.0529
A101R | -0.0207
A101F | -0.00851
A101I | -0.0179
A101M | -0.0323
A101P | -0.398
A101V | -0.0177
A101L | -0.0936
A101N | -0.0446
A101K | -0.0477

Variant | 8OG:A repair function score
V117C | 0.0468
V117A | 0.0474
V117N | -1.21
V117G | -0.408
V117H | -1.24
V117M | -0.226
V117F | -1.21
V117E | -0.683
V117L | -0.727
V117I | -0.166
V117P | -1.02
V117K | -1.84
V117D | -1
Q113G | -0.109
Q113K | -0.158
Q113Y | 0.0661
Q113M | -0.593
Q113L | -0.239
Q113W | -0.172
Q113A | -0.108
Q113E | -0.529
Q113D | -0.327
Q113V | -0.43
Q113R | 0.032

Variant | 8OG:A repair function score
Q113F | -0.237
Q113C | -0.133
Q113S | -0.0696
Q113N | -0.167
Q113I | -0.279
Q113P | -0.116
Q113T | 0.157
Q113H | -0.405
T116R | 0.0298
T116M | -0.441
T116N | -0.15
T116S | -0.0572
T116F | -0.000589
T116H | 0.0217
T116Q | -0.21
T116C | -0.0685
T116D | -1.03
T116A | -0.122
T116W | -0.0903
T116Y | -0.0318
T116I | -0.262
T116V | -0.0225
T116K | 0.113
T116E | -0.305

Variant | 8OG:A repair function score
T116G | -0.179
T116L | 0.023
T116P | -0.326
E106L | -1.25
E106S | -1.21
E106T | -1.01
E106G | -1.3
E106C | -1.19
E106H | -1.74
E106Q | -1.51
E106P | -1.62
E106F | -0.995
E106W | -1.04
E106Y | -1.24
E106A | -0.944
E106R | -1.42
E106N | -1.72
E106K | -1.45
E106I | -1.13
E106D | -0.903
E106V | -1.33
E106M | -0.994
W103E | -1.13
W103C | -0.655

Variant | 8OG:A repair function score
W103V | -0.986
W103I | -1.17
W103H | -0.97
W103P | -1.09
W103T | -0.833
W103A | -0.808
W103G | -0.73
W103R | -1.22
W103M | -0.283
W103N | -1.2
W103S | -1.14
W103D | -1.19
W103K | -1.37
W103Y | -0.166
W103Q | -0.686
W103L | -0.377
W103F | -0.399
Q110H | -0.0864
Q110A | -2.51
Q110P | -0.29
Q110L | -0.353
Q110C | -0.75
Q110F | -1.24
Q110V | 0.0461

Variant | 8OG:A repair function score
Q110G | 0.0252
Q110S | -1.26
Q110R | -0.82
Q111L | -0.931
Q111G | -0.557
Q111W | -0.869
Q111K | -0.553
Q111F | -1.08
Q111I | -1.18
Q111H | -0.591
Q111P | -1.13
Q111T | -0.764
Q111E | -1.24
Q111D | -0.941
Q111N | -0.242
Q111C | -0.764
Q111A | -0.258
Q111R | -0.248
Q111V | -0.38
Q111S | -0.201
Q111M | -1.12
Q111Y | -1.17
